# Measurements as given in paper PMC4082292, “Analysis of Y-P30/Dermcidin expression and properties of the Y-P30 peptide” (BMC Research Notes, 2014).
# Columns and labels:
# [1] = Oligomerization of synthetic Y-P30 and resistance to denaturing agents (SDS-PAGE/immunoblot); format: physicochemical; conditions: immunoblot
# Method: (§1) Y-P30 (aa 21–49) was synthesized as described previously [1]. For measuring stability of the peptide in vitro, Y-P30 was diluted in PBS (2 μg/μl) and incubated at room temperature over 24, 48 and 72 hours as well as 7 and 14 days. Additionally, the effect of different denaturing agents (urea, 8 M; dithiothreitol (DTT), 50 mM and 100 mM; iodoacetamide, 50 mM) was studied with incubation times of 2 and 12 hours. Thereafter, 4x sample loading dye (containing 5% beta-mercaptoethanol and 8% SDS) was added to 1x final concentration, all samples were boiled for 5 min at 95°C and subjected to SDS-PAGE with subsequent immunoblotting using a rabbit anti-Y-P30 antibody described previously [1, 2].
# [2] = chemical stability; Y-P30 (aa 21-49) 2 μg/μl in PBS, room temperature, Eppendorf tube on bench shelf with regular light exposure; 24, 48, 72 h, 7 and 14 days; SDS-PAGE, immunoblot with rabbit anti-Y-P30; 13,5 μg per lane
# Method: as §1
substance,measurement,setting,value
"Y-P30: synthetic survival promoting peptide, aa 21–49 of the human Y-P30/dermcidin precursor (DPEAASAPGSGNPCHEASAAQKENAGEDP; Survival-promoting peptide; UniProt P81605 21-49, looked up, fragment)",apparent size of SDS-resistant multimer of the synthetic peptide,"[1]; SDS-PAGE after boiling 5 min at 95°C in loading dye (5% beta-mercaptoethanol, 8% SDS at 4x), 10 μg per lane",10–15 kDa
same,resistance of the 10-15 kDa oligomer species to denaturing agents,"[1]; urea 8 M, DTT 50 mM and 100 mM, iodoacetamide 50 mM, incubation 2 h and 12 h (overnight), SDS-PAGE","resistant to urea, DTT and iodoacetamide"
same,time for which the 15 kDA oligomer is stable,[2],at least 14 days
